T1: human claudin-3 (human, UniProt O15551 1-220, limits assumed)
T1 sequence (looked up): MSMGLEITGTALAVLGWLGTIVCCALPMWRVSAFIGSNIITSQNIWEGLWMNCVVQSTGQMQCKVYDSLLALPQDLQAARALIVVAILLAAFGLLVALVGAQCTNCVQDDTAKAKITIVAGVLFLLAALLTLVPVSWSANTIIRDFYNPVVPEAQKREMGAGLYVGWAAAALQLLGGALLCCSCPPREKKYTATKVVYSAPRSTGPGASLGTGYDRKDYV

T2: human claudin-9 (human, UniProt O95484 1-217, limits assumed)
T2 sequence (looked up): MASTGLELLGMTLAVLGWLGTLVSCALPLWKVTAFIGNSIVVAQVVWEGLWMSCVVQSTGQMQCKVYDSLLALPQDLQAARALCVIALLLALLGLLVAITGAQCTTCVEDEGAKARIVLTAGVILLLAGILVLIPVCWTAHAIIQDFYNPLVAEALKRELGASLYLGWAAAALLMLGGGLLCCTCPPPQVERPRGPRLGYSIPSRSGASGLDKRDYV

B1: C1C2-NP (C1C2 peptide conjugated to PEG diacid coated ultrasmall Gd nanoparticles) (peptide)
peptide: Ac-SSVSQSTGQIQSKVDSLLNLNSTQATR-NH2
modifications: not fully specified; also: conjugated by EDC-NHS chemistry to PEG diacid on Gd oxide nanoparticle surface (19 peptides per 3.5 nm particle)
notes: The protein part is the C1C2 peptide; the core is not a protein; also called C1C2-NPs; C1C2 NPs

Key:
[1] = K^trans DCE-MRI: brain region accumulation and retention of NPs; assay type: in vivo, C57BL/6J mice; conditions: for K^trans, corpus callosum (CC): 100 μL of 0.5 mM NP via tail vein
Description: Both male and female young (6-8 weeks) C57BL/6J mice (Jackson Laboratory, Bar Harbor, ME) and middle aged (12 months) C57BL/6J and CX3CR1-GFP (Jackson Laboratory, Bar Harbor, ME) from a C57BL/6J background mice were used. Mice were housed in a 12 h/12 h day/night cycle with ad libitum access to standard mouse chow and water. All animal work was approved by and performed under the guidance of the University of Nebraska-Lincoln IACUC.
In vivo NP assessment consisted of dynamic contrast-enhanced (DCE)-MRI using a 9.4T MRI system (Varian) to compare targeting agent effect on the uptake as previously described (Miller et al., 2019, Scientific Reports, 9:16099). Briefly, mice were induced with about 2% isoflurane gas and maintained at a concentration sufficient to achieve 50 to 80 breaths per minute. Baseline T1 maps were generated using a gradient-echo sequence and the variable flip angle method with two angles, 10° and 30° (Deoni et al., 2003, Magn. Reson. Med., 49:515-26). Mice were injected with 100 μL of a 0.5 mM NP solution via tail vein catheter followed by 100 μL PBS to flush all remaining NP solution. A flip angle of 30° was used for all post-contrast scans, which occurred for 1 h following injection. TR was between 54 and 84 ms, TE between 2.73 and 4.24 ms, matrix size between 128×128 and 256×256, FOV between 20×20×10 mm^3 and 25×25×10 mm^3 depending on the experiment. NEX varied with matrix size to maintain temporal resolution, with 128×128, NEX=5 for all scans, with 256×256, NEX=4 for baseline and 1 for post-contrast scans.
Following serial image acquisition, resulting in about 100 post-contrast scans per animal, R1, concentration, and K^trans mapping were performed using custom MATLAB script. R1 mapping was performed using the variable flip angle method based on the following equation (Deoni et al., 2005, Magn. Reson. Med., 53:237-41: […]
where SSPGR is signal intensity, α is FA, E1 is […], and M0 is a proportionality factor related to longitudinal magnetization. E1 describes the linear relationship between the two signal intensity ratios, taking the slope, m, of that line enables calculation of T1 as:
Concentration maps were then generated by comparison of baseline R1 maps with post-contrast R1 maps using the following equation: […]
where C(t) is the concentration at time t, R1(t) is the post contrast R1-value at t, RT(t0) is baseline R1, and r1 is relaxivity of the contrast agent. K^trans, the contrast extravasation rate constant, mapping was then performed using a reference region (RR) model derived from the extended Tofts' model (Tofts et al., 1999, J. Magn. Reson. Imaging, 10:223-232):
where CTOI and CRR are concentrations in the tissue of interest (TOI) and the RR, respectively, K^trans,TOI and K^trans, RR are K^trans in the TOI and RR, respectively, and ve,TOI and ve,RR are extravascular-extracellular volume fractions for the TOI and RR, respectively. Muscle tissue from within the FOV was used in all animals as the RR. MATLAB was used to execute a least squares curve fitting routine to calculate K^trans for each voxel in the brain.

human claudin-3 = molecular target: T1, human claudin-3; assay: MST, sigmoidal dose-response fit (GraphPad Prism) of the FIG. 10A data, M is the unit of the concentration axis of panel A; fit without amplitude, confidence interval undefined [panel B]
Description: (§1) FIG. 10A is a graph showing binding of human claudins 3, 4 and 9 to C1C2-NPs using microscale thermophoresis. […] FIG. 10C is a graph showing the binding of human claudins 4 and 9 to control NPs monitored using microscale thermophoresis. […] Data fitting for human claudins 3, 4 and 9 were performed using Graph Pad Prism.
(§2) Human claudin-1 was expressed and purified as reported previously (Vecchio & Stroud, 2019, PNAS USA, 116:17817-24). MST measurements were performed using a Monolith instrument (NanoTemper Technologies). For experiments with human claudin-1, the assay buffer contained 10 mM Tris HCl, pH 8.0, 100 mM NaCl, 4% glycerol, and 0.04% n-Dodecyl-β-D-Maltopyranoside (β-DDM). NPs and peptides were labeled with AF647 prior to MST analysis as described above. For the binding experiments, the concentration of human claudin-1 was varied from 2.2-73,500 nM and the AF647-labeled C1C2-NP was fixed at 70 nM, while the AF647 labeled NPs and AF647 labeled C1C2 peptide were fixed at 1 and 0.3 μM, respectively. Binding of the AF647 labeled C1C2-NP to human claudin-3, -4, and -9 were tested using 0.4-14000 nM, 0.8-28000 nM, and 0.6-20000 nM, respectively; with the AF647 labeled C1C2-NP fixed at 70 nM. This assay buffer was similar, except β-DDM was replaced with 0.1% n-Undecyl-β-D-Maltopyranoside (beta-UDM).

human claudin-9 = molecular target: T2, human claudin-9; assay: MST, sigmoidal dose-response fit (GraphPad Prism) of the FIG. 10A data, M is the unit of the concentration axis of panel A; fit did not converge [panel B]
Description: as §1, §2

[2] = old (1-year-old) mice, listed as C1C2-NPs

| Molecule | K^trans, cortex (CTX) ([1]; old (1-year-old) mice) [min⁻¹] | K^trans, hippocampus (HC) ([1]; old (1-year-old) mice) [min⁻¹] | K^trans, hypothalamus (HT) ([1]; old (1-year-old) mice) [min⁻¹] | K^trans, muscle ([1]; old (1-year-old) mice) [min⁻¹] | K^trans, corpus callosum (CC) ([1]; old (1-year-old) mice) [min⁻¹] | K^trans, corpus callosum (CC) [1, 2] [min⁻¹] | K^trans, cortex (CTX) [1, 2] [min⁻¹] | K^trans, hippocampus (HC) [1, 2] [min⁻¹] | K^trans, hypothalamus (HT) [1, 2] [min⁻¹] | K^trans, cortex (CTX) ([1]; young mice) [min⁻¹] | K^trans, hippocampus (HC) ([1]; young mice) [min⁻¹] | K^trans, hypothalamus (HT) ([1]; young mice) [min⁻¹] | K^trans, muscle ([1]; young mice) [min⁻¹] | K^trans, corpus callosum (CC) ([1]; young mice) [min⁻¹] | EC50 (human claudin-3) [nM] | EC50 (human claudin-9) [mM] |
| --- | --- | --- | --- | --- | --- | --- | --- | --- | --- | --- | --- | --- | --- | --- | --- | --- |
| C1C2-NP: PEG diacid coated ultrasmall Gd NP conjugated with C1C2 peptide SSVSQSTGQIQSKVDSLLNLNSTQATR (SEQ ID NO: 6); claudin-1 targeted (Ac-SSVSQSTGQIQSKVDSLLNLNSTQATR-NH2; also: conjugated to PEG diacid coated ultrasmall Gd nanoparticle) | 0.0148 | 0.0040 | 0.0102 | 0.0057 | 0.0058 | 0.0058 | 0.0145 | 0.0040 | 0.0134 | 0.0022 | 0.0019 | 0.0026 | 0.0028 | 0.0019 |  |  |
| B1 |  |  |  |  |  |  |  |  |  |  |  |  |  |  | 88.1 | 218 |

Reference: patent US20240350646A1, “METHODS AND COMPOSITIONS FOR DELIVERY TO AND ACROSS THE BLOOD BRAIN BARRIER” (NUtech Ventures, priority 2021, published 2024)
